Source: patent publication US20060030527A1 (TRANSTECH PHARMA, published 2006)

Experiments:
BSA = target: T1, BSA (UniProt P02769 25-607); assay: ELISA on coated Maxisorb plates, absorbance at 405 nm
T1 construct: also called BSA coating alone; BSA+wash
Experimental: (§1) Known RAGE ligands were coated onto the surface of Maxisorb plates at a concentration of 5 micrograms per well. Plates were incubated at 4° C. overnight. Following ligand incubation, plates were aspirated and a blocking buffer of 1% BSA in 50 mM imidizole buffer (pH 7.2) was added to the plates for 1 hour at room temperature. The plates were then aspirated and/or washed with wash buffer (20 mM Imidizole, 150 mM NaCl, 0.05% Tween-20, 5 mM CaCl₂ and 5 mM MgCl₂, pH 7.2). […] The fusion protein was added at increasing dilutions of the initial sample. The RAGE fusion protein was allowed to incubate with the immobilized ligand at 37° C. for one hour after which the plate was washed and assayed for binding of the fusion protein. Binding was detected by the addition of an immunodetection complex containing a monoclonal mouse anti-human IgG1 diluted 1:11,000 to a final assay concentration (FAC) of 21 ng/100 μL, a biotinylated goat anti-mouse IgG diluted 1:500, to a FAC of […], and an avidin-linked alkaline phosphatase. […] Binding of the complex to the immobilized fusion protein was quantified by measuring conversion of PNPP to para-nitrophenol (PNP) which was measured spectrophotometrically at 405 nm.

[1] = target: T2, Amyloid Beta (1-40) from Biosource (UniProt P05067 672-711); assay: ELISA, immobilised ligand, dilutions of a 1.082 mg/mL solution
T2 construct: domain: Amyloid Beta (1-40); Immobilised on Maxisorb plates; amyloid beta 1-40 is a fragment of it; also called Abeta; A-beta
Experimental: as §1

[2] = target: T2, Amyloid Beta (1-40) from Biosource; assay: ELISA, ligand coated on Maxisorb plate, fusion protein detected through anti-human IgG1 complex
Experimental: as §1

T2 sequence (P05067 672-711 limits assumed): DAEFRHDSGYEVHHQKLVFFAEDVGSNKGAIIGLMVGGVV
T1 sequence (P02769 25-607 limits assumed): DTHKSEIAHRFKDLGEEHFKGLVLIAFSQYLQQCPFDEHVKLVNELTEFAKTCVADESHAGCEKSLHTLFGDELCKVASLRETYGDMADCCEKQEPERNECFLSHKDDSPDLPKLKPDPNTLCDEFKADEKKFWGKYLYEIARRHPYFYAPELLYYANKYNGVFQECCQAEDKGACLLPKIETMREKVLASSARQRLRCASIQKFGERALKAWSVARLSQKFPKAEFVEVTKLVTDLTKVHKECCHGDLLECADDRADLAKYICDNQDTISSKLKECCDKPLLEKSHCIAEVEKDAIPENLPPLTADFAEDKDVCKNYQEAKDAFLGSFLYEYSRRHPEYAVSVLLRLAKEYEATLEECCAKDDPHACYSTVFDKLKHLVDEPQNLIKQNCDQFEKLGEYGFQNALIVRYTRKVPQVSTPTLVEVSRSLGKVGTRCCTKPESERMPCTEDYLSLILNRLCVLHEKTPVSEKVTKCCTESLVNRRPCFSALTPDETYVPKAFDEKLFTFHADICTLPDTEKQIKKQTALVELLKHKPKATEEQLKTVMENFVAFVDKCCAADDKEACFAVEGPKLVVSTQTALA

Row | Binder | binding result (BSA) | binding result [1] | binding result [2]
1 | RAGE fusion protein TTP-3000 (Fc fusion, also called TT3; three domain RAGE fusion protein) AQNITARIGEPLVLKCKGAPKKPPQRLEWKLNTGRTEAWKVLSPQGGGPWDSVARVLPNGSLFLPAVGIQDEGIFRCQAMNRNGKETKSNYRVRVYQIPGKPEIVDSASELTAGPSVFLFPPKPKDTLMISRTPEVTCVVVDVSHEDPEVKFNWYVDGVEVHNAKTKPREEQYNSTYRVVSVLTVLHQDWLNGKEYKCKVSNKALPAPIEKTISKAKGQPREPQVYTLPPSRDELTKNQVSLTCLVKGFYPSDIAVEWESNGQPENNYKTTPPVLDSDGSFFLYSKLTVDKSRWQQGNVFSCSVMHEALHNHYTQKSLSLSPGK | no binding | binds | 
2 | RAGE fusion protein TTP-4000 (Fc fusion, No immunoglobulin hinge; also called TT4; four domain RAGE fusion protein) AQNITARIGEPLVLKCKGAPKKPPQRLEWKLNTGRTEAWKVLSPQGGGPWDSVARVLPNGSLFLPAVGIQDEGIFRCQAMNRNGKETKSNYRVRVYQIPGKPEIVDSASELTAGVPNKVGTCVSEGSYPAGTLSWHLDGKPLVPNEKGVSVKEQTRRHPETGLFTLQSELMVTPARGGDPRPTFSCSFSPGLPRHRALRTAPIQPRVWEPVPLEEVQLVVEPEGGAVAPPSVFLFPPKPKDTLMISRTPEVTCVVVDVSHEDPEVKFNWYVDGVEVHNAKTKPREEQYNSTYRVVSVLTVLHQDWLNGKEYKCKVSNKALPAPIEKTISKAKGQPREPQVYTLPPSRDELTKNQVSLTCLVKGFYPSDIAVEWESNGQPENNYKTTPPVLDSDGSFFLYSKLTVDKSRWQQGNVFSCSVMHEALHNHYTQKSLSLSPGK | no binding |  | binds
